Molecular target: Recombinant Human CTLA4-Fc chimera (R&D systems) (human) (UniProt P16410)
Assay: ELISA, signal over SA

Binder | ELISA S/N(SA)
GGCRHPFLPIVSLHFCPF (peptide, not shown: large carriers; small tags and cut ends) [C4m#19-5th2w-NNS6-51] | 15.8
GGCRHPFLPIRSPHFCGS (peptide, not shown: large carriers; small tags and cut ends) [C4m3127-4th-NNS6-7] | 4.7
GGCRHPFLPIFSLHFCAR (peptide, not shown: large carriers; small tags and cut ends) [C4m#19-5th2w-NNS6-8] | 16.5
GGCRHPFLPIWSVHFCWR (peptide, not shown: large carriers; small tags and cut ends) [C4m#19-5th2w-NNS6-45] | 11
GGCWHPFLPILSLHFCGW (peptide, not shown: large carriers; small tags and cut ends) [C4m#19-6th4w-NN6-5-3] | 14.7
GGCLHPLLPILSVHFCPS (peptide, not shown: large carriers; small tags and cut ends) [C4m#19-5th4w-NN6-83] | 12
GGCFHPFLPIRSCHFCAR (peptide, not shown: large carriers; small tags and cut ends) [C4m#19-5th2w-NNS6-27] | 9.9
GGCPHPMLPIFSVHFCPY (peptide, not shown: large carriers; small tags and cut ends) [C4m#19-5th4w-NN6-61] | 5.9
GGCFHPYLPIWSLHFCRS (peptide, not shown: large carriers; small tags and cut ends) [C4m#19-5th2w-NNS6-86] | 7.7
GGCKHPFLPISSHHFCPY (peptide, not shown: large carriers; small tags and cut ends) [C4m#19-5th2w-NNS6-25] | 21.1
GGCWHPYLPIFSVHFCPR (peptide, not shown: large carriers; small tags and cut ends) [C4m3127-4th-NNS6-16] | 16.5
GGCWHPCLPILSPHFCPR (peptide, not shown: large carriers; small tags and cut ends) [C4m3127-4th-NNS6-30] | 7.5
GGCRHPFLPISSIHFCCI (peptide, not shown: large carriers; small tags and cut ends) [C4m#19-5th4w-NN6-58] | 18.7
GGCLHPFLPIRSVHFCLR (peptide, not shown: large carriers; small tags and cut ends) [C4m3127-4th-NNS6-79] | 12.8
GGCAHPFLPIFSPHFCPF (peptide, not shown: large carriers; small tags and cut ends) [C4m#19-5th2w-NNS6-3] | 18.4
GGCMHPFLPIISQHFCAF (peptide, not shown: large carriers; small tags and cut ends) [C4m#19-5th4w-NN6-89] | 8.3
GGCAHPVLPIRSLHFCPH (peptide, not shown: large carriers; small tags and cut ends) [C4m#19-5th4w-NN6-86] | 19.7
GGCWHPFLPILSWHFCGR (peptide, not shown: large carriers; small tags and cut ends) [C4m#19-5th2w-NNS6-30] | 9
GGCWHPYLPIRSVHFCGR (peptide, not shown: large carriers; small tags and cut ends) [C4m#19-5th2w-NNS6-12] | 20.4
GGCWHPFLPIRSVHFCCR (peptide, not shown: large carriers; small tags and cut ends) [C4m#19-5th4w-NN6-14] | 16.1
GGCGHPFLPIFSSHFCPL (peptide, not shown: large carriers; small tags and cut ends) [C4m3127-4th-NNS6-85] | 9.1
GGCWHPFLPIKSVHFCCA (peptide, not shown: large carriers; small tags and cut ends) [C4m#19-5th4w-NN6-75] | 5.6
GGCSHPFLPIRSRHFCPF (peptide, not shown: large carriers; small tags and cut ends) [C4m3127-4th-NNS6-12] | 15.8
GGCMHPFLPIKSSHFCRK (peptide, not shown: large carriers; small tags and cut ends) [C4m#19-5th4w-NN6-6] | 16.1

Binder | ELISA S/N(SA)
GGCWHPWLPIVSVHFCGC (peptide, not shown: large carriers; small tags and cut ends) [C4m#19-5th4w-NN6-72] | 4.6
GGCWHPFLPILSLHFCSR (peptide, not shown: large carriers; small tags and cut ends) [C4m#19-5th4w-NN6-65] | 12.5
GGCLHPWLPIRSFHFCGA (peptide, not shown: large carriers; small tags and cut ends) [C4m#19-5th2w-NNS6-53] | 11.4
GGCLHPFLPIVSIHFCSA (peptide, not shown: large carriers; small tags and cut ends) [C4m#19-5th2w-NNS6-26] | 5.8
GGCRHPWLPIWSVHFCGV (peptide, not shown: large carriers; small tags and cut ends) [C4m#19-5th4w-NN6-45] | 15.8
GGCRHPFLPIVSFHFCPF (peptide, not shown: large carriers; small tags and cut ends) [C4m#19-5th2w-NNS6-90] | 19.7
GGCWHPFLPIFSAHFCMR (peptide, not shown: large carriers; small tags and cut ends) [C4m3127-4th-NNS6-89] | 6.6
GGCAHPHLPIRSVHFCSF (peptide, not shown: large carriers; small tags and cut ends) [C4m3127-4th-NNS6-66] | 4.8
GGCWHPYLPIQSLHFCPF (peptide, not shown: large carriers; small tags and cut ends) [C4m#19-5th4w-NN6-5-1] | 14.7
GGCRHPVLPIVSLHFCPG (peptide, not shown: large carriers; small tags and cut ends) [C4m3127-4th-NNS6-17] | 20.4
GGCWHPVLPIRSVHFCCR (peptide, not shown: large carriers; small tags and cut ends) [C4m#19-5th4w-NN6-64] | 13.7
GGCWHPSLPIYSPHFCPL (peptide, not shown: large carriers; small tags and cut ends) [C4m3127-4th-NNS6-2] | 12.8
GGCGHPFLPIFSLHFCPR (peptide, not shown: large carriers; small tags and cut ends) [C4m3127-4th-NNS6-80] | 12.8
GGCSHPFLPIFSLHFCPV (peptide, not shown: large carriers; small tags and cut ends) [C4m#19-5th4w-NN6-38] | 16.6
GGCLHPYLPIVSSHFCPF (peptide, not shown: large carriers; small tags and cut ends) [C4m3127-4th-NNS6-64] | 12.9
GGCRHPFLPIWSSHFCAA (peptide, not shown: large carriers; small tags and cut ends) [C4m#19-5th2w-NNS6-43] | 4.8
GGCWHPYLPILSLHFCQR (peptide, not shown: large carriers; small tags and cut ends) [C4m#19-5th2w-NNS6-6] | 10.3
GGCFHPWLPISSLHFCPF (peptide, not shown: large carriers; small tags and cut ends) [C4m#19-5th2w-NNS6-4] | 6.3
GGCCHPFLPIYSVHFCAS (peptide, not shown: large carriers; small tags and cut ends) [C4m#19-5th2w-NNS6-34] | 5
GGCRHPFLPIFSKHFCEL (peptide, not shown: large carriers; small tags and cut ends) [C4m3127-4th-NNS6-83] | 20.7
GGCVHPALPIWSFHFCPS (peptide, not shown: large carriers; small tags and cut ends) [C4m#19-5th4w-NN6-46-1] | 14.2
GGCWHPFLPIMSFHFCPY (peptide, not shown: large carriers; small tags and cut ends) [C4m#19-5th4w-NN6-30] | 16.7
GGCRHPWLPIVSYHFCSS (peptide, not shown: large carriers; small tags and cut ends) [C4m#19-5th4w-NN6-90] | 21.2
GGCRHPYLPIWSAHFCCR (peptide, not shown: large carriers; small tags and cut ends) [C4m#19-5th4w-NN6-36] | 5.7

Binder | ELISA S/N(SA)
GGCFHPWLPIASWHFCGR (peptide, not shown: large carriers; small tags and cut ends) [C4m3127-4th-NNS6-48] | 13.5
GGCIHPFLPIWSIHFCSR (peptide, not shown: large carriers; small tags and cut ends) [C4m#19-5th2w-NNS6-37] | 9.4
GGCRHPYLPIFSAHFCRS (peptide, not shown: large carriers; small tags and cut ends) [C4m#19-5th4w-NN6-1] | 16.1
GGCRHPFLPIVSWHFCAA (peptide, not shown: large carriers; small tags and cut ends) [C4m#19-5th2w-NNS6-70] | 5.1
GGCVHPYLPISSIHFCSM (peptide, not shown: large carriers; small tags and cut ends) [C4m3127-4th-NNS6-72] | 20
GGCFHPFLPIYSWHFCAR (peptide, not shown: large carriers; small tags and cut ends) [C4m#19-5th4w-NN6-74] | 15.1
GGCRHPFLPIVSRHFCVA (peptide, not shown: large carriers; small tags and cut ends) [C4m#19-5th2w-NNS6-79] | 9.2
GGCRHPVLPIWSSHFCPW (peptide, not shown: large carriers; small tags and cut ends) [C4m3127-4th-NNS6-94] | 5.9
GGCQHPYLPIWSFHFCPF (peptide, not shown: large carriers; small tags and cut ends) [C4m#19-5th4w-NN6-62] | 17.2
GGCFHPFLPIFSYHFCGL (peptide, not shown: large carriers; small tags and cut ends) [C4m#19-5th2w-NNS6-46] | 6.1
GGCAHPALPIWSCHFCPF (peptide, not shown: large carriers; small tags and cut ends) [C4m3127-4th-NNS6-26] | 7.1
GGCMHPFLPIRSWHFCSR (peptide, not shown: large carriers; small tags and cut ends) [C4m#19-5th2w-NNS6-74] | 7
GGCPHPWLPIASVHFCPF (peptide, not shown: large carriers; small tags and cut ends) [C4m#19-5th4w-NN6-71] | 17.4
GGCWHPFLPISSWHFCGL (peptide, not shown: large carriers; small tags and cut ends) [C4m3127-4th-NNS6-60] | 11.9
GGCLHPFLPIYSLHFCPC (peptide, not shown: large carriers; small tags and cut ends) [C4m#19-5th4w-NN6-94] | 5
GGCAHPYLPIRSVHFCPC (peptide, not shown: large carriers; small tags and cut ends) [C4m#19-5th2w-NNS6-28] | 6.3
GGCWHPWLPIKSPHFCAL (peptide, not shown: large carriers; small tags and cut ends) [C4m#19-5th2w-NNS6-75] | 15.3
GGCWHPYLPILSRHFCQA (peptide, not shown: large carriers; small tags and cut ends) [C4m#19-5th4w-NN6-63] | 16.5
GGCRHPFLPIWSFHFCWG (peptide, not shown: large carriers; small tags and cut ends) [C4m#19-5th2w-NNS6-33] | 9.4
GGCWHPFLPIVSFHFCPF (peptide, not shown: large carriers; small tags and cut ends) [C4m#19-5th2w-NNS6-84] | 6.4
GGCSHPFLPIWSVHFCGQ (peptide, not shown: large carriers; small tags and cut ends) [C4m3127-4th-NNS6-3] | 10.9
GGCWHPHLPIVSSHFCLF (peptide, not shown: large carriers; small tags and cut ends) [C4m#19-5th4w-NN6-2] | 18.4

— patent US20240092836A1
